Consider one molecule from patent US20170066817A1.

The target in assay [1] is human cellular prion protein (human). Nature of the assay: cell-based or functional assay.
The target in assay [2] is GST-PrPc (β1α1) protein (human). Nature of the assay: Biacore (SPR), ratio of affinities. (SPR reads the build-up and loss of mass on a sensor chip optically.)
Assay [3] has the same target. The assay is described as follows: Biacore (SPR), soluble GST-PrPc (β1α1) at several concentrations.

B1: anti-PrPc mAb-5 (monoclonal antibody Ab-5) (antibody, V domains shown)
VH: EVQLQQSGPELVKPGASVKMSCKASGYTFTDYYMKWVKQSHGKSLEWIGDINPNNGDTFYNQKFKGKATLTVDKSSNTAYMQLNSLTSEDSAVYYCAKPGRTYWGQGTLVTVSAAKTTAPSVYPLAPVCGGSRP
VL: DIVLTQSPASLAVSLGQRATISYRASKSVSTSGYSYMHWNQQKPGQPPRLLIYLVSNLESGVPARFSGSGSGTDFTLNIHPVEEEDAATYYCQHIRELTRSEGGPSWK
A word on the Kd: it is the equilibrium constant for the complex coming apart. Low values mean a tighter complex, high ones a looser complex. In assay [1], B1 showed a Migrated cell number, HCT116 cells (transwell, antibody 10 µg/mL, 24 h) of 192 cells; a Migrated cell number, MDA-MB-231 cells (transwell, antibody 10 µg/mL, 24 h) of 695 cells; a Migrated cell number, SW480 cells (transwell, antibody 10 µg/mL, 24 h) of 111 cells. Besides, in assay [2], the fold affinity against 12F10 worked out at 5.38 times and the fold affinity against Ab-3 was found to be 1.87 times. Moreover, the Kd in assay [3] stood at 3.05 nM.
